Test results from patent publication US20230287082A1 (published 2023).

B1: human NKp30 (receptor, UniProt O14931 19-135, looked up)
chain: LWVSQPPEIRTLEGSSAFLPCSFNASQGRLAIGSVTWFRDEVVPGKEVRNGTPEFRGRLAPLASSRFLHDHQAELHIRDVRGHDASIYVCRVEVLGLGVGTGNGTRLVVEKEHPQLG
notes: Soluble analyte in BLI; also called recombinant NKp30; his-tagged NKp30 (Abcam)
B2: ΔB7-H6_S3#7-SEED-PGLALA (bispecific antibody, part only; not given: SEED Fc chains and hu225 Fab, part only)
chain, part: DLKVEMMAGGTQITPLNDNVTIFCNIFYSQPLNITHMGITWFWKSLTFDKEVKVFEFYGDHQEAFRPGAIVSPWRLKSGDASLRLPGIQLEEAGEYRCEVVVTPYKAQGTVQLEVVASPAS
B3: ΔB7-H6_S3#19-SEED-PGLALA (bispecific antibody, part only; not given: SEED Fc chains and hu225 Fab, part only)
chain, part: DLKVEMMAGGTQITPLNDNVTIFCNIFYSQPLNITQMGITWFWKSLTFDKEVKVFEFWGDHQEAFRPGAIVSPWRLKSGDASLRLPGIQLEEAGEYRCEVVVTPYKAQGTVQLEVVASPAS
B4: ΔB7-H6_S3#30-SEED-PGLALA (bispecific antibody, part only; not given: SEED Fc chains and hu225 Fab, part only)
chain, part: DLKVEMMAGGTQITPLNDNVTIFCNIFYSQPLNITEMGITWFWKSLTFDKEVKVFEFWGDHQEAFRPGAIVSPWRLKSGDASLRLPGIQLEEAGEYRCEVIVTPLKAQGTVQLEVVASPAS
B5: ΔB7-H6_S3#10-SEED-PGLALA (bispecific antibody, part only; not given: SEED Fc chains and hu225 Fab, part only)
chain, part: DLKVEMMAGGTQITPLNDNVTIFCNIFYSQPLNITSMGITWFWKSLTFDKEVKVFEFYGDHQEAFRPGAIVSPWRLKSGDASLRLPGIQLEEAGEYRCEVFVTPYKAQGTVQLEVVASPAS
B6: ΔB7-H6_S3#28-SEED-PGLALA (bispecific antibody, part only; not given: SEED Fc chains and hu225 EGFR Fab, part only)
chain, part: DLKVEMMAGGTQITPLNDNVTIFCNIFYSQPLNITHMGITWFWKSLTFDKEVKVFEFWGDHQEAFRPGAIVSPWRLKSGDASLRLPGIQLEEAGEYRCEVVVTPLKAQGTVQLEVVASPAS
B7: ΔB7-H6_S2#1-SEED-PGLALA (bispecific antibody, part only; not given: SEED Fc chains and hu225 EGFR Fab, part only)
chain, part: DLKVEMMAGGTQITPLNDNVTIFCNIFYSQPLNITSMGITWFWKSLTFDKEVKVFEFYGDHQEAFRPGAIVSPWRLKSGDASLRLPGIQLEEAGEYRCEVVVTPYKAQGTVQLEVVASPAS
B8: ΔB7-H6_S3#11-SEED-PGLALA (bispecific antibody, part only; not given: SEED Fc chains and hu225 Fab, part only)
chain, part: DLKVEMMAGGTQITPLNDNVTIFCNIFYSQPLNITLMGITWFWKSLTFDKEVKVFEFWGDHQEAFRPGAIVSPWRLKSGDASLRLPGIQLEEAGEYRCEVIVTPFKAQGTVQLEVVASPAS
B9: ΔB7-H6_S3#9-SEED-PGLALA (bispecific antibody, part only; not given: SEED Fc chains and hu225 EGFR Fab, part only)
chain, part: DLKVEMMAGGTQITPLNDNVTIFCNIFYSQPLNITHMGITWFWKSLTFDKEVKVFEFFGDHQEAFRPGAIVSPWRLKSGDASLRLPGIQLEEAGEYRCEVVVTPYKAQGTVQLEVVASPAS
B10: ΔB7-H6_S3#23-SEED-PGLALA (bispecific antibody, part only; not given: SEED Fc chains and hu225 Fab, part only)
chain, part: DLKVEMMAGGTQITPLNDNVTIFCNIFYSQPLNITEMGITWFWKSLTFDKEVKVFEFYGDHQEAFRPGAIVSPWRLKSGDASLRLPGIQLEEAGEYRCEVVVTPYKAQGTVQLEVVASPAS
B11: ΔB7-H6_S3#8-SEED-PGLALA (bispecific antibody, part only; not given: SEED Fc chains and hu225 EGFR Fab, part only)
chain, part: DLKVEMMAGGTQITPLNDNVTIFCNIFYSQPLNITHMGITWFWKSLTFDKEVKVFEFWGDHQEAFRPGAIVSPWRLKSGDASLRLPGIQLEEAGEYRCEVIVTPLKAQGTVQLEVVASPAS
B12: ΔB7-H6_S2#7-SEED-PGLALA (bispecific antibody, part only; not given: SEED Fc chains and hu225 Fab, part only)
chain, part: DLKVEMMAGGTQITPLNDNVTIFCNIFYSQPLNITSMGITWFWKSLTFDKEVKVFEFYGDHQEAFRPGAIVSPWRLKSGDASLRLPGIQLEEAGEYRCEVIVTPYKAQGTVQLEVVTSPAS
B13: ΔB7-H6_S3#21-SEED-PGLALA (bispecific antibody, part only; not given: SEED Fc chains and hu225 Fab, part only)
chain, part: DLKVEMMAGGTQITPLNDNVTIFCNIFYSQPLNITLMGITWFWKSLTFDKEVKVFEFWGDHQEAFRPGAIVSPWRLKSGDASLRLPGIQLEEAGEYRCEVVVTPYKAQGTVQLEVVASPAS
B14: ΔB7-H6_S2#3-SEED-PGLALA (bispecific antibody, part only; not given: SEED Fc chains and hu225 Fab, part only)
chain, part: DLKVEMMAGGTQITPLNDNVTIFCNIFYSQPLNITTMGITWFWKSLTFDKEVKVFEFWGDHQEAFRPGAIVSPWRLKSGDASLRLPGIQLEEAGEYRCEVVVTPLKAQGTVQLEVVASPAS
B15: ΔB7-H6_S3#17-SEED-PGLALA (bispecific antibody, part only; not given: SEED Fc chains and hu225 EGFR Fab, part only)
chain, part: DLKVEMMAGGTQITPLNDNVTIFCNIFYSQPLNITSMGITWFWKSLTFDKEVKVFEFYGDHQEAFRPGAIVSPWRLKSGDASLRLPGIQLEEAGEYRCEVFVTPLKAQGTVQLEVVASPAS
B16: ΔB7-H6_S3#22-SEED-PGLALA (bispecific antibody, part only; not given: SEED Fc chains and hu225 Fab, part only)
chain, part: DLKVEMMAGGTQITPLNDNVTIFCNIFYSQPLNITEMGITWFWKSLTFDKEVKVFEFWGDHQEAFRPGAIVSPWRLKSGDASLRLPGIQLEEAGEYRCEVVVTPYKAQGTVQLEVVASPAS
B17: ΔB7-H6_S2#2-SEED-PGLALA (bispecific antibody, part only; not given: SEED Fc chains and hu225 Fab, part only)
chain, part: DLKVEMMAGGTQITPLNDNVTIFCNIFYSQPLNITSMGITWFWKSLTFDKEVKVFEFWDDHQEAFRPGAIVSPWRLKSGDASLRLPGIQLEEAGEYRCEVVVTPYKAQGTVQLEVVASPAS
B18: ΔB7-H6_S3#26-SEED-PGLALA (bispecific antibody, part only; not given: SEED Fc chains and hu225 Fab, part only)
chain, part: DLKVEMMAGGTQITPLNDNVTIFCNIFYSQPLNITTMGITWFWKSLTFDKEVKVFEFWDDHQEAFRPGAIVSPWRLKSGDASLRLPGIQLEEAGEYRCEVVVTPYKAQGTVQLEVVASPAS
B19: ΔB7-H6_S3#12-SEED-PGLALA (bispecific antibody, part only; not given: SEED Fc chains and hu225 Fab, part only)
chain, part: DLKVEMMAGGTQITPLNDNVTIFCNIFYSQPLNITEMGITWFWKSLTFDKEVKVFEFFGDHQEAFRPGAIVSPWRLKSGDASLRLPGIQLEEAGEYRCEVVVTPYKAQGTVQLEVVASPAS

Columns and labels:
[1] = molecular target: T1, yeast surface displayed ΔB7-H6 (wild-type) (human, UniProt Q68D85 25-145); experiment: yeast surface display, flow cytometry
T1 construct: also called wild-type ΔB7-H6 on yeast; not shown: Aga2p fusion partner of the pYD-derived vector
T1 sequence: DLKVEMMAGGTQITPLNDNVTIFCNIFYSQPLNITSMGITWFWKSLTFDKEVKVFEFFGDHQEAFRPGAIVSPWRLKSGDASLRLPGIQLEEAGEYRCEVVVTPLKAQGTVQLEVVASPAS

[2] = molecular target: NKp30 on human NK cells (human) (UniProt O14931); experiment: cell-based or functional assay
[3] = molecular target: human NKp30 (human) (UniProt O14931); experiment: BLI, ratio to ΔB7-H6_wt
[4] = molecular target: human NKp30 (human) (UniProt O14931); experiment: BLI, immunoligand on anti-hFc tip

NKp30 on human NK cells (human), sequence (O14931 19-201): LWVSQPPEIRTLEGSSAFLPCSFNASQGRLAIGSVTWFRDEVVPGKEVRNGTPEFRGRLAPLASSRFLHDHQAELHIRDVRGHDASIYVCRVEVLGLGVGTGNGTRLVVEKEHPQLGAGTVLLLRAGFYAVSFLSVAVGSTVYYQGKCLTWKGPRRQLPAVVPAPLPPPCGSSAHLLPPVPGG

Row | Binder | binding result [1] | EC50 (pM), A431 lysis with PBMC [2] | EC50 improvement compared to ΔB7-H6 wt [2] | KD improvement compared to ΔB7-H6 wt [3] | x-fold KD improvement [3] | x-fold Koff improvement [3] | Kd [4] | koff [4] | kon [4]
1 | B1 | binds | – | – | – | – | – | – | – | –
2 | B2 | – | 45.4 pM | 19 fold | 3.7 fold | 3.7 fold | 3.2 fold | 110 nM | 0.0525 s⁻¹ | 478000 M⁻¹ s⁻¹
3 | B3 | – | 240 pM | 4 fold | 2.8 fold | 2.8 fold | 1.7 fold | 146 nM | 0.0981 s⁻¹ | 673000 M⁻¹ s⁻¹
4 | B4 | – | 176 pM | 5 fold | 3.3 fold | 3.3 fold | 2.2 fold | 125 nM | 0.0776 s⁻¹ | 622000 M⁻¹ s⁻¹
5 | B5 | – | 85 pM | 10 fold | 2.8 fold | 2.8 fold | 1.7 fold | 145 nM | 0.0998 s⁻¹ | 689000 M⁻¹ s⁻¹
6 | B6 | – | 114 pM | 8 fold | 0.9 fold | 0.9 fold | 1.2 fold | 443 nM | 0.136 s⁻¹ | 306000 M⁻¹ s⁻¹
7 | B7 | – | 140 pM | 6 fold | 2 fold | 2 fold | 2.2 fold | 205 nM | 0.078 s⁻¹ | 380000 M⁻¹ s⁻¹
8 | B8 | – | 65.8 pM | 13 fold | 10.5 fold | 10.5 fold | 3.9 fold | 39.1 nM | 0.0432 s⁻¹ | 1.11e+06 M⁻¹ s⁻¹
9 | B9 | – | 64 pM | 14 fold | 7.1 fold | 7.1 fold | 3 fold | 57.8 nM | 0.056 s⁻¹ | 970000 M⁻¹ s⁻¹
10 | B10 | – | 78 pM | 11 fold | 3.7 fold | 3.7 fold | 3.2 fold | 110 nM | 0.0525 s⁻¹ | 479000 M⁻¹ s⁻¹
11 | B11 | – | 43.7 pM | 20 fold | 5.1 fold | 5.1 fold | 3.7 fold | 80.7 nM | 0.0455 s⁻¹ | 564000 M⁻¹ s⁻¹
12 | B12 | – | 170 pM | 5 fold | 2.1 fold | 2.1 fold | 1.7 fold | 191 nM | 0.0964 s⁻¹ | 504000 M⁻¹ s⁻¹
13 | B13 | – | 36.1 pM | 24 fold | 22.8 fold | 22.8 fold | 8 fold | 17.9 nM | 0.0211 s⁻¹ | 1.18e+06 M⁻¹ s⁻¹
14 | B14 | – | 175 pM | 5 fold | 2.1 fold | 2.1 fold | 1.6 fold | 194 nM | 0.106 s⁻¹ | 546000 M⁻¹ s⁻¹
15 | B15 | – | 427 pM | 2 fold | 6.9 fold | 6.9 fold | 2.9 fold | 59.1 nM | 0.0573 s⁻¹ | 969000 M⁻¹ s⁻¹
16 | B16 | – | 106 pM | 8 fold | 4.3 fold | 4.3 fold | 3.8 fold | 95.2 nM | 0.0441 s⁻¹ | 463000 M⁻¹ s⁻¹
17 | B17 | – | 169 pM | 5 fold | 1.9 fold | 1.9 fold | 2.3 fold | 217 nM | 0.0737 s⁻¹ | 340000 M⁻¹ s⁻¹
18 | B18 | – | 22.7 pM | 38 fold | 3.6 fold | 3.6 fold | 3.6 fold | 113 nM | 0.0464 s⁻¹ | 409000 M⁻¹ s⁻¹
19 | B19 | – | 165 pM | 5 fold | 3.2 fold | 3.2 fold | 1.9 fold | 129 nM | 0.0865 s⁻¹ | 671000 M⁻¹ s⁻¹
